Experimental data published in the supplement of paper PMC9170038.

System: MS2 coat protein
Test: apparent KD of MS2 coat protein; designed switch direction (-1 OFF switch, 1 ON switch): -1; higher = weaker reporter binding
Summary of the method: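 Designed RNA switches with common flanks were transcribed on Illumina chips by stalled E. coli RNA polymerase and titrated with SNAP-549-labelled MS2 coat protein, from 0.7 or 1.5 nM doubling to 3 µM, in Tris-HCl pH 7.5 buffer with KCl, MgCl2, BSA, DTT, tRNA and Tween-20. Steps lasted 0.8–1.5 h (lowest) to 10–20 min (highest). Titrations ran without input, with 200 uM small-molecule ligand, or with an oligonucleotide input. Normalised cluster fluorescence was curve-fitted, and apparent KD is the per-design median over clusters.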

[1] = Eterna round: R95, input ligand: microRNA oligo, concentration not stated
[2] = Eterna round: R95, input ligand: FMN 200 uM
[3] = Eterna round: R95, input ligand: none
[4] = input ligand: microRNA oligo, concentration not stated

Row | Sequence | apparent KD of MS2 coat protein (input ligand: FMN 200 uM) | apparent KD of MS2 coat protein (input ligand: none) | apparent KD of MS2 coat protein [1] | apparent KD of MS2 coat protein [2] | apparent KD of MS2 coat protein [3] | apparent KD of MS2 coat protein [4]
1 | ACACAGCGAGGAUAUACAUGAGGAUCACCCAUGUGGCGGCCGUUACGGUAGCACUAGUGUAGAAGGCGCAUUGG [EX3 #35] (Eterna round: R97, puzzle: Exclusion 3) | 155 nM | 192 nM |  |  |  | 
2 | UGCAUGUGAGGAUAUGGCGCUCGAUUGCGGAAGGAGCGAGUUUAGAAGGUACAUGAGGAUCACCCAUGUCACGU [Eternabot (L2) Solution 97] (Eterna round: R97, puzzle: Exclusion 4) | 21.6 nM | 25.9 nM |  |  |  | 
3 | GGUCUGCGAGGAUAUACAUGAGGAUCACCCAUGUGCGAGAUACUAGUGAGGUCGAUUGGUAGAAGGCGCGGACA [Mat - Exclusion 3 - Mod of JL D84] (puzzle: Exclusion 3) |  |  | 90.4 nM |  |  | 
4 | AGAGCACAUGAGGAUCACCCAUGUCAGGAUAUGCAAGAAAGAAAGAAAGAAAGAAAGAGCAGAAGGGACAAAUA [?solved?] (puzzle: Exclusion 1) |  |  | 34.2 nM | 34.9 nM | 43.2 nM | 
5 | GAGUGAUGAGGAUAUACAUGAGGAUCACCCAUGUGCUUCAGCUAGGAGACUAGCAUUGGUAGAAGGCAUUACUC [Mod of lroppy 7 - Jieux - Exclusion 3] (Eterna round: R97, puzzle: Exclusion 3) | 90.1 nM | 15.8 nM |  |  |  | 
6 | CCUAUGUGAGGAUAUCACUGGUCUUCUCACUGGAUGAUUAGUGAGAAGGCACAUGAGGAUCACCCAUGUCGGUG [Ex4 - 3 - 51] (puzzle: Exclusion 4) |  |  | 524 nM |  |  | 
7 | GAAUAGGCAGGAUAUACAUGAGGAUCACCCAUGUGCAACCGAAAGGAACGUCCGAAAGGUAGAAGGGCCUAAAC [ChP 13.04.2015 #9] (puzzle: Exclusion 3) |  |  | 17.9 nM | 73.7 nM | 19.6 nM | 
8 | UAAGUUUACCGAGGAUAUGGUUUUUCCUAUUAACCAGAAGGCGGACUCAACAUGAGGAUCACCCAUGUAUAAAGGGUAUUAGGU [JR_ExcNG1_Sub044] (Eterna round: R96, puzzle: Exclusion NG 1) | 88.5 nM | 74.2 nM |  |  |  | 68 nM
9 | UAUAAAACAUAGGAUAUCGAAAUUAUCAUUUAACGAGAAGGAUGAACAUGAGGAUCACCCAUGUGGUAUCAUGG [Mat - Exclusion 6 - JL Mod - D10] (puzzle: Exclusion 6) |  |  | 425 nM | 370 nM | 238 nM | 
10 | GAUCCGUUAGGAUAUCGUGAGGACAGCUAGUCUUAUUAACACGAGAAGGAACAUGAGGAUCACCCAUGUGGUAA [Eternabot (L1) Solution 14] (Eterna round: R97, puzzle: Exclusion 4) | 279 nM | 62.3 nM |  |  |  | 
11 | GGUGAGCUAGGAUAUGCUUUGGGCACGCAUUCCUUCGAUAAACUUGAGGAUCACCCAAGUAGAAGGAGCUUGCC [salish99_ex2_r4_030] (Eterna round: R97, puzzle: Exclusion 2) | 18.1 nM | 12.9 nM |  |  |  | 
12 | UUUGUUUAUGUAGGAUAUGCCUGGCGUGCCUUUGCAGAAGGACAUGAGGAUCACCCAUGUAACAUGAGGCUCACCCAUGUCGCU [salish99_ExNG1_r04_111] (Eterna round: R96, puzzle: Exclusion NG 1) | 240 nM | 292 nM |  |  |  | 180 nM
13 | AAAAUGGUCUAGGAUAUGACAAAUCUGAUCACGUCAGAAGGAGACACAUGAGGAUCACCCAUGUGGGUGCGAAA [Qureenan] (puzzle: Exclusion 6) |  |  | 44.4 nM | 130 nM | 39.5 nM | 
14 | UAGUUAAACACAGGAUAUCGCCUCUUAUUACAUGAGGAUCACCCAUGUUUAGUUAGUUACAUGUUCGAGAAGGGUGAAGUAGUU [JR_ExcNG2_Sub041] (Eterna round: R96, puzzle: Exclusion NG 2) | 793 nM | 555 nM |  |  |  | 1300 nM
